{
  "source": "paper PMC9830511",
  "about": "“Flot2 acts as a novel mediator of podocyte injury in proteinuric kidney disease” (International Journal of Biological Sciences, 2023)",
  "binders": {"B1": {"name": "His-podocin full length (natural protein, mouse, UniProt Q91X05 1-385, looked up)", "chain": "MDSRARSSSREAHGRSSRSSSRDDKKAKAGRGSRGRARPDAGAERQSTGRTATRGEPRAPAATATVVDVDEVRGPGEEGTEVVALLESERPEEGIKPSGLGACEWLLVLASLIFIIMTFPFSIWFCIKVVQEYERVIIFRLGHLLPGRAKGPGLFFFLPCLDTYHKVDLRLQTLEIPFHEVVTKDMFIMEIDAVCYYRMENASLLLSSLAHVSKAIQFLVQTTMKRLLAHRSLTEILLERKSIAQDVKVALDAVTCIWGIKVERTEIKDVRLPAGLQHSLAVEAEAQRQAKVRVIAAEGEKAASESLRMAAEILSGTPAAVQLRYLHTLQSLSTEKPATVVLPLPFDMLSLLSSPGNRAQGSINYPSSSKPVEPLNPKKKDSPML", "notes": "Podocin, mouse, full-length cDNA in pET-28a(+); also called His-tagged podocin; His-tagged mouse podocin"}},
  "target": "T1, GST-Flot2 full length (amino acids 1-428) (mouse, UniProt Q60634 1-428)",
  "T1 construct": "it may add a CBP tag as well; also called GST-tagged Flot2",
  "T1 sequence (looked up)": "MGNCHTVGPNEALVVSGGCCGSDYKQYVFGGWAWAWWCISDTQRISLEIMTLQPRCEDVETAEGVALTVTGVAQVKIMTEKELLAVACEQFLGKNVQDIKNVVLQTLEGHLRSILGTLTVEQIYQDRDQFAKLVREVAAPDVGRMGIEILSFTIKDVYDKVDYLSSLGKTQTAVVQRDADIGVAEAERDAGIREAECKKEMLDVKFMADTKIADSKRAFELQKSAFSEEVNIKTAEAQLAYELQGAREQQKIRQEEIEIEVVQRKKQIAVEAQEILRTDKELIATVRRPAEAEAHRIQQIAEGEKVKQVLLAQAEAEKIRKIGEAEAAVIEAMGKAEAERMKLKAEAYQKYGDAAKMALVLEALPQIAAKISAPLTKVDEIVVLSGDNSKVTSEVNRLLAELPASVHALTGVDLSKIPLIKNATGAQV",
  "assay": "pull-down; GST pull-down: GST-Flot2 (full length) on GST resin, His-podocin (full length); overnight at 4 °C; eluted with 20 mM reduced glutathione; immunoblot with anti-His",
  "conditions": "both partners purified",
  "data": [
    {"binder": "B1", "values": [
      {"measurement": "binding result", "value": "binds"}
    ]}
  ]
}
